Reference: patent publication US20110206727A1

Biological target: OmpC porin purified from Salmonella typhi (Salmonella enterica subsp. enterica serovar Typhi)
Assay: phage display panning on OmpC; frequency among 8 sequenced binding phage

Substance	Frequency (fraction of sequenced phage clones)
OmpC affinity peptide SLSLIQT	0.125
OmpC affinity peptide TATYLLD	0.125
